Assay results reported in patent EP4792891A2 (LTZ Therapeutics Inc., dated 2026).

Assays:
[1] = target: EGFR on DLD-1 cells (UniProt P00533); assay: cell-based or functional assay
[2] = target: T1, CD79b on cells (Ramos cells, endogenous B cells) (human, UniProt P40259 29-229); assay: cell-based or functional assay
T1 sequence (looked up): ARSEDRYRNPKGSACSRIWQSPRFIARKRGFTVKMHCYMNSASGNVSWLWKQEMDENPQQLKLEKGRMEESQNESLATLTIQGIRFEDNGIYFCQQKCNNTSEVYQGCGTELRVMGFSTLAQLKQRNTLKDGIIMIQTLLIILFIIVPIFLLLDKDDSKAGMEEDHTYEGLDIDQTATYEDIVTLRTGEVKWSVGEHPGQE

## Necitumumab (antibody)
[1]
  IC50 (nM), DLD-1 cell killing by M0 macrophages: 0.0574 nM

B1: CD79b/5C7 (1+1 B) Fc-optimized (bispecific antibody, human IgG1, kappa)
heavy 1: EQQLVETGGGLIQPGGSLRLSCAASGFTINIDYWISWVRQAPGKGLEWIGIIDPGDGTTYFAIWVSGRFTISFDNSKNTVYLQMNSLRAEDTAVYFCVREFSASAYQYDLWGPGTLVTVSSASTKGPSVFPLAPSSKSTSGGTAALGCLVKDYFPEPVTVSWNSGALTSGVHTFPAVLQSSGLYSLSSVVTVPSSSLGTQTYICNVNHKPSNTKVDKKVEPKSCDKTHTCPPCPAPELLAGPSVFLFPPKPKDTLMISRTPEVTCVVVDVSHEDPEVKFNWYVDGVEVHNAKTKPREEQYNSTYRVVSVLTVLHQDWLNGKEYKCKVSNKALPLPEEKTISKAKGQPREPQVYTLPPSRDELTKNQVSLSCAVKGFYPSDIAVEWESNGQPENNYKTTPPVLDSDGSFFLVSKLTVDKSRWQQGNVFSCSVMHEALHNHYTQKSLSLSPGK
heavy 2: DIQMTQSPSSLSASVGDRVTITCQASESVDRNNRLAWFQQKPGKPPKLLIYTTSTLASGVPSRFSGSGSGTDFTLTISSLQPEDVATYYCAGYRGAHTDGDAFGGGTKVEIKGGGGSGGGGSGGGGSGGGGSEQQLVESGGGLVKPGGSLRLSCAASGFSFSRSSYMCWVRQAPGKGLEWIGCLSVGDGHTYYASWAKGRFTISKDSAKNSVYLQMNSLRAEDTAVYFCARAPSYSGDGGHGYDLWGPGTLVTVSSDKTHTCPPCPAPELLAGPSVFLFPPKPKDTLMISRTPEVTCVVVDVSHEDPEVKFNWYVDGVEVHNAKTKPREEQYNSTYRVVSVLTVLHQDWLNGKEYKCKVSNKALPLPEEKTISKAKGQPREPQVYTLPPSRDELTKNQVSLWCLVKGFYPSDIAVEWESNGQPENNYKTTPPVLDSDGSFFLYSKLTVDKSRWQQGNVFSCSVMHEALHNHYTQKSLSLSPGK
light: ELVMTQSPATLSVSPGERATLSCRASEDIENYLAWYQQKPGQPPRLLIYRASTLSSGVPARFSGSGSGTEFTLTISSLQSEDFAVYYCQQGYRNSNVDNPFGGGTKVEIKRTVAAPSVFIFPPSDEQLKSGTASVVCLLNNFYPREAKVQWKVDNALQSGNSQESVTEQDSKDSTYSLSSTLTLSKADYEKHKVYACEVTHQGLSSPVTKSFNRGEC
[2]
  IC50 (nM), killing of endogenous B cells by PBMCs, Donor 234: 0.0453 nM

B2: CD79b/5C7 (2+2 B) Fc-optimized (bispecific antibody, human IgG1, kappa)
heavy: EQQLVETGGGLIQPGGSLRLSCAASGFTINIDYWISWVRQAPGKGLEWIGIIDPGDGTTYFAIWVSGRFTISFDNSKNTVYLQMNSLRAEDTAVYFCVREFSASAYQYDLWGPGTLVTVSSASTKGPSVFPLAPSSKSTSGGTAALGCLVKDYFPEPVTVSWNSGALTSGVHTFPAVLQSSGLYSLSSVVTVPSSSLGTQTYICNVNHKPSNTKVDKKVEPKSCDKTHTCPPCPAPELLAGPSVFLFPPKPKDTLMISRTPEVTCVVVDVSHEDPEVKFNWYVDGVEVHNAKTKPREEQYNSTYRVVSVLTVLHQDWLNGKEYKCKVSNKALPLPEEKTISKAKGQPREPQVYTLPPSRDELTKNQVSLTCLVKGFYPSDIAVEWESNGQPENNYKTTPPVLDSDGSFFLYSKLTVDKSRWQQGNVFSCSVMHEALHNHYTQKSLSLSPGGGGGSGGGGSGGGGSDIQMTQSPSSLSASVGDRVTITCQASESVDRNNRLAWFQQKPGKPPKLLIYTTSTLASGVPSRFSGSGSGTDFTLTISSLQPEDVATYYCAGYRGAHTDGDAFGCGTKVEIKGGGGSGGGGSGGGGSGGGGSEQQLVESGGGLVKPGGSLRLSCAASGFSFSRSSYMCWVRQAPGKCLEWIGCLSVGDGHTYYASWAKGRFTISKDSAKNSVYLQMNSLRAEDTAVYFCARAPSYSGDGGHGYDLWGPGTLVTVSS
light: B1 light
[2]
  IC50 (nM), killing of endogenous B cells by PBMCs, Donor 367: 0.0168 nM
  IC50 (nM), killing of endogenous B cells by PBMCs, Donor 431: 0.0168 nM
